Data taken from PMC6834678.

Assays:
[1] = molecular target: C1q (of human serum) (human (endogenous in human serum)) (UniProt P02745)
[2] = molecular target: wt-IgG4 (class-switched IgG4 variant of Trastuzumab, wild-type Fc) (human); experiment: SPR; antibody variants immobilised on CM5 chip (~500 RU, amine coupling); hFcRn:hβ2m dimer injected at serial dilutions (1000-40 nM) in PBS, pH 5.8, 30 μL/min; KD from steady-state isotherms or from kinetics with a 1:1 Langmuir mass transfer model
[3] = molecular target: wt-IgG3 (class-switched IgG3 variant of Trastuzumab, G3m16 allotype with H435, wild-type Fc) (human); experiment: as above
[4] = molecular target: EDH-IgG1 (Trastuzumab IgG1 with V264E, L309D, Q311H) (human); experiment: as above
[5] = molecular target: N434S-IgG1 (Trastuzumab IgG1 with N434S) (human); experiment: as above
[6] = molecular target: DHS-IgG4 (class-switched IgG4 variant of Trastuzumab with the DHS mutations) (human); experiment: as above
[7] = molecular target: DHS-IgG3 (class-switched IgG3 variant of Trastuzumab, G3m16 allotype with H435, with the DHS mutations) (human); experiment: as above

Sequence of UniProt P02745 (P02745 23-245, chain 1 of 3): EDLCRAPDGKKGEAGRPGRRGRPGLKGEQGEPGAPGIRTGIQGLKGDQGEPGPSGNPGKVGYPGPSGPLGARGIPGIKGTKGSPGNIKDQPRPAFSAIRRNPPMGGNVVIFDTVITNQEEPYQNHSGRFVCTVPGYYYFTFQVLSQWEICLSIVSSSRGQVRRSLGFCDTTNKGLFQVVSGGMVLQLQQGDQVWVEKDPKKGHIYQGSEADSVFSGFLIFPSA
Sequence of UniProt P02745 (P02746 28-253, chain 2 of 3, further chain): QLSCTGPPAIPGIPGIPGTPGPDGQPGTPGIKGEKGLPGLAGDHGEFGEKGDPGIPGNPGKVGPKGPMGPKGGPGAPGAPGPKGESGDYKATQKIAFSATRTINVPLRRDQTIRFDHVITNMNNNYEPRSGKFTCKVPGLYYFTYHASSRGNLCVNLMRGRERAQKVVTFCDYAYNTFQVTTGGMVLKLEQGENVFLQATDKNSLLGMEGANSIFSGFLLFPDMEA
Sequence of UniProt P02745 (P02747 29-245, chain 3 of 3, further chain): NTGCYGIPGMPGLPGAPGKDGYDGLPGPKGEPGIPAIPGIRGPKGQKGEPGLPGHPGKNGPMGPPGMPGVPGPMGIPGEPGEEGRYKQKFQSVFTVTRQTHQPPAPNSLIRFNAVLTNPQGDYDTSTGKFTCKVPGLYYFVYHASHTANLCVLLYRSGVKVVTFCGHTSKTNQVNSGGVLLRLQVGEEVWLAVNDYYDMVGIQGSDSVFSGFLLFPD

CDC of Raji cells with 25% human serum against antibody concentration; potency (name of the quantity not given) [1]	Kd [2]	Kd [3]	Kd [4]	Kd [5]	Kd [6]	Kd [7]	Substance
0.7 µg/mL	–	–	–	–	–	–	DHS-Rituximab IgG1 (anti-CD20 IgG1 with L309D/Q311H/N434S) (antibody)
1.9 µg/mL	–	–	–	–	–	–	LS-Rituximab (anti-CD20 IgG1 with M428L/N434S) (antibody)
–	2460 nM	4080 nM	487 nM	220 nM	832 nM	739 nM	human FcRn/human β2m complex (hFcRn:hβ2m dimer) (from UniProt P55899 24-297; P61769 21-119)
